# Laboratory results from the Immune Epitope Database (IEDB).
# Assays:
# HLA-A*24:02 = assay: IEDB peptide-MHC binding, purified MHC/competitive/radioactivity; filed as Kd, often an IC50 or EC50 that approximates it; ≥ and ≤ were set here for values at or beyond the usual limits of such assays
# HLA-B*44:03 = assay: as above
# HLA-A*30:02 = assay: as above
# HLA-B*58:01 = assay: IEDB peptide-MHC binding, purified MHC/direct/fluorescence; filed as Kd, often an IC50 or EC50 that approximates it; ≥ and ≤ were set here for values at or beyond the usual limits of such assays
# HLA-A*01:01 = assay: IEDB peptide-MHC binding, purified MHC/competitive/radioactivity; filed as Kd, often an IC50 or EC50 that approximates it; ≥ and ≤ were set here for values at or beyond the usual limits of such assays
# HLA-B*44:02 = assay: as above
# HLA-A*23:01 = assay: as above
# HLA-A*26:01 = assay: as above
# HLA-A*02:02 = assay: as above
# HLA-A*02:06 = assay: as above
# HLA-A*02:03 = assay: as above
# HLA-A*29:02 = assay: as above
# [1] = source organism: Dengue virus 2 Jamaica/1409/1983
# [2] = source organism: Dengue virus 4 Philippines/H241/1956
# [3] = source organism: Dengue virus 1 Singapore/S275/1990
# [4] = source organism: Dengue virus 3 Martinique/1243/1999
# [5] = source organism: Dengue virus 3 Sri Lanka/1266/2000
# [6] = source organism: Dengue virus 4 Dominica/814669/1981
# [7] = source organism: Vaccinia virus WR
# [8] = source organism: Mammarenavirus whitewaterense
# [9] = source organism: Mammarenavirus guanaritoense
# [10] = source organism: SARS coronavirus Tor2
sequence,measurement,setting,value
IYGAAFSGV,Kd,HLA-A*24:02; [1],398 nM
KEVALLRTYC,Kd,HLA-B*44:03; [2],128 nM
KKGKVVGLY,Kd,HLA-A*30:02; source organism: Dengue virus 2 Peru/IQT2913/1996,85.3 nM
LSNAGSNNW,Kd,HLA-B*58:01; source organism: Mycobacterium tuberculosis,48.6 nM
LTDFQSHQL,Kd,HLA-A*01:01; [3],6440 nM
LTLTAAVLLL,Kd,HLA-A*01:01; [4],13900 nM
LVQIENLEY,Kd,HLA-A*01:01; [2],90.4 nM
same,Kd,HLA-A*30:02; [2],1110 nM
MEAQLVRQM,Kd,HLA-B*44:02; [5],14.7 nM
same,Kd,HLA-B*44:03; [5],123 nM
MELKYSWKT,Kd,HLA-B*44:03; [4],343 nM
MSPGYVLGVF,Kd,HLA-A*24:02; [6],1480 nM
same,Kd,HLA-A*23:01; [6],1000 nM
same,Kd,HLA-A*26:01; [6],1600 nM
MVTLYLGVM,Kd,HLA-A*26:01; source organism: Dengue virus 1 Brazil/97-11/1997,163 nM
MYFHRRDLRL,Kd,HLA-A*24:02; [1],149 nM
same,Kd,HLA-A*23:01; [1],57.3 nM
NEEKITQQM,Kd,HLA-B*44:02; [4],578 nM
NTIFTLTVAW,Kd,HLA-B*44:02; [5],7260 nM
same,Kd,HLA-B*44:03; [5],≥ 23100 nM
same,Kd,HLA-A*26:01; [5],8780 nM
NYADRRWCF,Kd,HLA-A*24:02; [1],12.2 nM
same,Kd,HLA-A*23:01; [1],50.6 nM
PFDTRQMLFY,Kd,HLA-A*01:01; source organism: Homo sapiens,252 nM
PLPSLEYGA,Kd,HLA-A*02:02; [7],11400 nM
same,Kd,HLA-A*02:06; [7],≥ 42500 nM
same,Kd,HLA-A*02:03; [7],18900 nM
PLSPDTCLLA,Kd,HLA-A*02:02; [7],11200 nM
same,Kd,HLA-A*02:06; [7],19900 nM
same,Kd,HLA-A*02:03; [7],9310 nM
PWLSSKPEF,Kd,HLA-A*23:01; [2],116 nM
PYVPMPCMI,Kd,HLA-A*24:02; [8],57.4 nM
same,Kd,HLA-A*29:02; [8],≥ 60700 nM
same,Kd,HLA-A*23:01; [8],41.7 nM
QEHETSWHYD,Kd,HLA-B*44:02; [1],158 nM
same,Kd,HLA-B*44:03; [1],746 nM
QIFNIISYII,Kd,HLA-A*02:02; [7],288 nM
same,Kd,HLA-A*02:06; [7],743 nM
same,Kd,HLA-A*02:03; [7],206 nM
RDTAEAAKW,Kd,HLA-B*58:01; source organism: Mycobacterium tuberculosis variant bovis,1590 nM
RLQMAGVEV,Kd,HLA-A*02:02; [7],326 nM
same,Kd,HLA-A*02:06; [7],4110 nM
same,Kd,HLA-A*02:03; [7],531 nM
RYPLTFGWCF,Kd,HLA-A*24:02; source organism: HIV-1 M:B_ARV2/SF2,17 nM
SAGFTATICL,Kd,HLA-A*02:02; [7],6900 nM
same,Kd,HLA-A*02:06; [7],2410 nM
same,Kd,HLA-A*02:03; [7],≥ 20100 nM
SELETPNLAE,Kd,HLA-B*44:03; [3],6330 nM
SEMGANFRAG,Kd,HLA-B*44:02; [2],95 nM
same,Kd,HLA-B*44:03; [2],868 nM
SFKVGHHTNF,Kd,HLA-A*24:02; [9],11000 nM
same,Kd,HLA-A*29:02; [9],814 nM
same,Kd,HLA-A*23:01; [9],1320 nM
SIDHCSSFIV,Kd,HLA-A*02:02; [7],172 nM
same,Kd,HLA-A*02:06; [7],30.3 nM
same,Kd,HLA-A*02:03; [7],772 nM
SYKIGHHVEL,Kd,HLA-A*24:02; [8],12900 nM
same,Kd,HLA-A*29:02; [8],≥ 56900 nM
same,Kd,HLA-A*23:01; [8],15900 nM
TIESAKTKI,Kd,HLA-A*02:02; [7],16300 nM
same,Kd,HLA-A*02:06; [7],≥ 51100 nM
same,Kd,HLA-A*02:03; [7],≥ 54100 nM
TQFNFNGHT,Kd,HLA-A*02:02; [7],≥ 43300 nM
same,Kd,HLA-A*02:06; [7],≥ 10000 nM
same,Kd,HLA-A*02:03; [7],14400 nM
TQSGALEVLM,Kd,HLA-A*02:02; [7],836 nM
same,Kd,HLA-A*02:06; [7],2230 nM
same,Kd,HLA-A*02:03; [7],15400 nM
TTEAILPEY,Kd,HLA-A*01:01; [4],30.6 nM
same,Kd,HLA-A*26:01; [4],1180 nM
same,Kd,HLA-A*30:02; [4],≥ 54300 nM
TVDVRNIVT,Kd,HLA-A*02:02; [7],13400 nM
same,Kd,HLA-A*02:06; [7],≥ 54000 nM
same,Kd,HLA-A*02:03; [7],13100 nM
TWAKNIHTAI,Kd,HLA-A*24:02; [2],2000 nM
VAKCCSKTNT,Kd,HLA-A*02:02; [7],14700 nM
same,Kd,HLA-A*02:06; [7],≥ 40800 nM
same,Kd,HLA-A*02:03; [7],≥ 21700 nM
VLVGVVTLY,Kd,HLA-A*26:01; [1],13600 nM
same,Kd,HLA-A*30:02; [1],58.3 nM
VTGSYNLVDT,Kd,HLA-A*02:02; [7],≥ 70000 nM
same,Kd,HLA-A*02:06; [7],≥ 69800 nM
same,Kd,HLA-A*02:03; [7],≥ 70400 nM
VTTWENVPYL,Kd,HLA-A*01:01; [4],11300 nM
YCHGILLKDV,Kd,HLA-A*02:02; [8],≥ 70000 nM
same,Kd,HLA-A*02:06; [8],14900 nM
same,Kd,HLA-A*02:03; [8],13000 nM
YLMCLSPLM,Kd,HLA-A*02:02; [10],0.137 nM
same,Kd,HLA-A*02:06; [10],1.12 nM
same,Kd,HLA-A*02:03; [10],0.297 nM
YLYTEYFLFL,Kd,HLA-A*02:02; [7],0.684 nM
same,Kd,HLA-A*02:06; [7],0.841 nM
same,Kd,HLA-A*02:03; [7],1.32 nM
YVIGLLPQS,Kd,HLA-A*02:02; [9],≥ 77700 nM
same,Kd,HLA-A*02:06; [9],≥ 48000 nM
same,Kd,HLA-A*02:03; [9],≥ 78100 nM
YVILKDPRIA,Kd,HLA-A*02:02; [7],6010 nM
same,Kd,HLA-A*02:06; [7],1900 nM
same,Kd,HLA-A*02:03; [7],355 nM
YVSVMNFIPI,Kd,HLA-A*02:02; [7],341 nM
same,Kd,HLA-A*02:06; [7],0.109 nM
same,Kd,HLA-A*02:03; [7],152 nM
